Percent reduction of binding compared to WIPI2b WT data for one substance are collected here from publication PMC11387628.

For one test, the target named is GFP-WIPI2b S68A (human). Put plainly: co-IP; GFP-Trap of GFP-WIPI2b WT or mutants from lysates of transfected HEK293A or HEK293A WIPI2 KO cells (full medium or 2 h EBSS), 2 h at 4 °C; washed in TNTE wash buffer (50 mM Tris pH 7.5, 300 mM NaCl, 5 mM EDTA, 0.1% Triton-X100); endogenous ULK1, ATG13 and ATG16L1 detected by western blot.
Another test addresses GFP-WIPI2b S68D (human). The description is as above.

As to “endogenous ATG16L1 (from UniProt Q676U5 1-607) (natural protein)”, the percent reduction of binding compared to WIPI2b WT was 30% in the test with GFP-WIPI2b S68A (human) and over 60% with GFP-WIPI2b S68D (human).
